Target: recombinant HIV-1 gp120 (American Biotechnology, Inc.) (HIV-1)
Test: ELISA on gp120-coated plates, culture medium

Fab105-Protamine fusion protein (from UniProt P04553 1-51)
binding activity against HIV gp120 in culture medium (µg/ml/24 hours): 0.1

— patent US7186697
